What was measured:
tumor Granzyme B [1] = target: T1, tumor Granzyme B (Mus musculus, UniProt P04187); experiment: PET/CT imaging in MC38 tumor-bearing mice, comparison with radiopharmaceuticals with similar structures; assay type: in vivo, C57 mice; settings: 7.4 MBq via tail vein, 0.5 h after injection, compared with the other three comparative radiopharmaceuticals
T1 construct: from tissue; host or cells: MC38 tumors in living C57 mice
T1 sequence (P04187 21-247): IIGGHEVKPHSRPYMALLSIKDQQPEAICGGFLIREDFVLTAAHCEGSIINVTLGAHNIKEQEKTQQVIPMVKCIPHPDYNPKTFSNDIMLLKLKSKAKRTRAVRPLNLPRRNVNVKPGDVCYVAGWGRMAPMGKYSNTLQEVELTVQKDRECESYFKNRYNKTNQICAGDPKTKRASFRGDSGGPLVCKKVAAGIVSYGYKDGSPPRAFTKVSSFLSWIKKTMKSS
Method: In order to compare the in vivo nuclear medicine imaging advantages of the Granzyme B-targeting complex of the present invention, three Granzyme B-targeting complexes with similar structures are prepared by a similar synthesis method. All of them were labeled with ^68Ga after DOTA coupling to obtain the corresponding Granzyme B-targeting radioactive compounds. 7.4 MBq of the freshly prepared ^68Ga-labeled complex was taken and injected into female C57 mice bearing MC38 tumors via the tail vein. After injection for 0.5 h, the animals were anesthetized with isoflurane for PET/CT imaging. The result is illustrated in FIG. 11, showing that the ^68Ga-labelled DOTA complex of the present invention had optimal tumor Granzyme B uptake and low normal tissue (e.g. gastrointestinal tract) uptake compared with the other three comparative radiopharmaceuticals.

Granzyme B in 4T1 tumors = target: T2, Granzyme B in 4T1 tumors (Mus musculus, UniProt P04187); parameters: species or system BALB/c mice; settings: in vivo
T2 construct: from tissue; host or cells: 4T1 tumors in living BALB/c mice
T2 sequence (P04187 21-247): T1 sequence (P04187 21-247)
Method: (§1) MC38 and 4T1 tumor cells were inoculated subcutaneously in the right axilla of C57 and BALB/c mice, respectively, to establish immunotherapy pseudo-progression and true-progression mouse models. 200 μg of the anti-PD-1 antibody and anti-CTLA-4 antibody were injected intraperitoneally for a total of 3 times on days 0, 3 and 6, respectively. […] After injection for 0.5 h, the animals were anesthetized with isoflurane for PET/CT imaging. The changes of the tumor size in MC38 and 4T1 tumor-bearing mice were measured by a vernier caliper.

[2] = target: T3, Granzyme B in MC38 tumors (Mus musculus, UniProt P04187); parameters: species or system C57 mice; settings: in vivo
T3 construct: from tissue; host or cells: MC38 tumors in living C57 mice
T3 sequence (P04187 21-247): T1 sequence (P04187 21-247)
Method: as §1

tumor Granzyme B [3] = target: T1, tumor Granzyme B; experiment: SPECT/CT imaging of tumor Granzyme B in MC38 tumor-bearing mice; assay type: in vivo, C57 mice; settings: 18.5 MBq via tail vein, 0.5 h after injection
Method: SPECT imaging of tumor Granzyme B with a ^99mTc-labeled HYNIC complex. 18.5 MBq of the freshly prepared ^99mTc-labeled HYNIC complex was taken and injected into female C57 mice bearing MC38 tumors in the right axilla via the tail vein. After injection for 0.5 h, the animals were anesthetized with isoflurane for SPECT/CT imaging.

Row | Compound | normal tissue (e.g. gastrointestinal tract) uptake (tumor Granzyme B [1]) | tumor uptake on day 6 versus day 0 (Granzyme B in 4T1 tumors) | tumor uptake at day 6 versus day 0 [2] | uptake value in MC38 tumors (SPECT) (tumor Granzyme B [3])
1 | CC[C@H](C)[C@H](NC(=O)Cc1cccc(CNC(=O)C[C@H](NC(=O)C[C@H](NC(=O)CN2CCN(CC(=O)O)CCN(CC(=O)O)CCN(CC(=O)O)CC2)C(=O)O)C(=O)O)c1)C(=O)N[C@H]1CCc2cccc3c2N(C1=O)[C@H](C(=O)NCc1cn[nH]n1)C3 [^68Ga-labeled DOTA complex, metal not drawn] | low | no significant difference | significantly higher than that at day 0 | 
2 | CC[C@H](C)[C@H](NC(=O)Cc1cccc(CNC(=O)C[C@H](NC(=O)C[C@H](NC(=O)c2ccc(NN)nc2)C(=O)O)C(=O)O)c1)C(=O)N[C@H]1CCc2cccc3c2N(C1=O)[C@H](C(=O)NCc1cn[nH]n1)C3 [^99mTc-labeled HYNIC complex, metal not drawn] |  |  |  | good uptake value
